# Earlier results in publication PMC5540906.
# “And” between values parts separate entries of the source, which are not always exact repeats. Equal entries are not always repeated.
# How the values were obtained:
# [1] = target: ClpP tetradecamer (Escherichia coli) (UniProt P0A6G7); test: activity measurements
# [2] = target: DnaK (Thermus thermophilus) (UniProt Q72IK5)
# UniProt Q72IK5, sequence (Q72IK5 whole entry): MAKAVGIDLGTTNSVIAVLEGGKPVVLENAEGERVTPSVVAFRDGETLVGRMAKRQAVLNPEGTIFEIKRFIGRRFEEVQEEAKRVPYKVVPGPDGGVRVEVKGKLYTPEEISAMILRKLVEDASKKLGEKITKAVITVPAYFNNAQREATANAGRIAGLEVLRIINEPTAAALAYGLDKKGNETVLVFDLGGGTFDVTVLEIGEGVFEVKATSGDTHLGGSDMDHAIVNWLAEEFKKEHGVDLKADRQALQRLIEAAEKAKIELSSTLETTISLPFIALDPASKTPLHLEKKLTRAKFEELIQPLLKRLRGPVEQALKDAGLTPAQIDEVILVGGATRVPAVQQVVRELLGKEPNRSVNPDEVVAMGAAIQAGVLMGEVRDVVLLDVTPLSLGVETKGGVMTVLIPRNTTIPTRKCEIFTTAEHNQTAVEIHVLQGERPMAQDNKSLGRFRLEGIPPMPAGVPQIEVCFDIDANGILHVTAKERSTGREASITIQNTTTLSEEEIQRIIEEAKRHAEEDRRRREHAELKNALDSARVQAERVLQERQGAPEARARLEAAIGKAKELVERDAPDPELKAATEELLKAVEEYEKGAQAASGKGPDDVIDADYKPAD
# UniProt P0A6G7, sequence (P0A6G7 15-207): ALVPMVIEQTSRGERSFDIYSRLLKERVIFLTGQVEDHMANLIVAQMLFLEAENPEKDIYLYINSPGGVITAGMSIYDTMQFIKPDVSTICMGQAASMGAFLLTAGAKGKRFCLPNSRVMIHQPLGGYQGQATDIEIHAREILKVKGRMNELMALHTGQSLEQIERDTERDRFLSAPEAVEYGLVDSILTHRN
Kd [1],Kd [2],Substance
0.004 µM,,ClpA hexamer (from UniProt P0ABH9)
,17 µM and 25 µM,ClpB (from UniProt Q72IK9)
